One substance from PMC7335163 can be followed below.

This test addresses GFP-tagged R2910Q UNC80 mutant (mouse) (mouse) (UniProt Q8BLN6). Kind of test: co-IP; HEK293T co-transfected with NALCN or UNC79 and GFP-tagged UNC80 constructs; IP with anti-GFP, blot anti-NALCN or anti-UNC79; RIPA buffer (IP buffer with 0.5% deoxycholate and 0.1% SDS); 4 °C (Fig. 8a-c, f, g).
Sequence of UniProt Q8BLN6 (Q8BLN6 whole entry R2910Q): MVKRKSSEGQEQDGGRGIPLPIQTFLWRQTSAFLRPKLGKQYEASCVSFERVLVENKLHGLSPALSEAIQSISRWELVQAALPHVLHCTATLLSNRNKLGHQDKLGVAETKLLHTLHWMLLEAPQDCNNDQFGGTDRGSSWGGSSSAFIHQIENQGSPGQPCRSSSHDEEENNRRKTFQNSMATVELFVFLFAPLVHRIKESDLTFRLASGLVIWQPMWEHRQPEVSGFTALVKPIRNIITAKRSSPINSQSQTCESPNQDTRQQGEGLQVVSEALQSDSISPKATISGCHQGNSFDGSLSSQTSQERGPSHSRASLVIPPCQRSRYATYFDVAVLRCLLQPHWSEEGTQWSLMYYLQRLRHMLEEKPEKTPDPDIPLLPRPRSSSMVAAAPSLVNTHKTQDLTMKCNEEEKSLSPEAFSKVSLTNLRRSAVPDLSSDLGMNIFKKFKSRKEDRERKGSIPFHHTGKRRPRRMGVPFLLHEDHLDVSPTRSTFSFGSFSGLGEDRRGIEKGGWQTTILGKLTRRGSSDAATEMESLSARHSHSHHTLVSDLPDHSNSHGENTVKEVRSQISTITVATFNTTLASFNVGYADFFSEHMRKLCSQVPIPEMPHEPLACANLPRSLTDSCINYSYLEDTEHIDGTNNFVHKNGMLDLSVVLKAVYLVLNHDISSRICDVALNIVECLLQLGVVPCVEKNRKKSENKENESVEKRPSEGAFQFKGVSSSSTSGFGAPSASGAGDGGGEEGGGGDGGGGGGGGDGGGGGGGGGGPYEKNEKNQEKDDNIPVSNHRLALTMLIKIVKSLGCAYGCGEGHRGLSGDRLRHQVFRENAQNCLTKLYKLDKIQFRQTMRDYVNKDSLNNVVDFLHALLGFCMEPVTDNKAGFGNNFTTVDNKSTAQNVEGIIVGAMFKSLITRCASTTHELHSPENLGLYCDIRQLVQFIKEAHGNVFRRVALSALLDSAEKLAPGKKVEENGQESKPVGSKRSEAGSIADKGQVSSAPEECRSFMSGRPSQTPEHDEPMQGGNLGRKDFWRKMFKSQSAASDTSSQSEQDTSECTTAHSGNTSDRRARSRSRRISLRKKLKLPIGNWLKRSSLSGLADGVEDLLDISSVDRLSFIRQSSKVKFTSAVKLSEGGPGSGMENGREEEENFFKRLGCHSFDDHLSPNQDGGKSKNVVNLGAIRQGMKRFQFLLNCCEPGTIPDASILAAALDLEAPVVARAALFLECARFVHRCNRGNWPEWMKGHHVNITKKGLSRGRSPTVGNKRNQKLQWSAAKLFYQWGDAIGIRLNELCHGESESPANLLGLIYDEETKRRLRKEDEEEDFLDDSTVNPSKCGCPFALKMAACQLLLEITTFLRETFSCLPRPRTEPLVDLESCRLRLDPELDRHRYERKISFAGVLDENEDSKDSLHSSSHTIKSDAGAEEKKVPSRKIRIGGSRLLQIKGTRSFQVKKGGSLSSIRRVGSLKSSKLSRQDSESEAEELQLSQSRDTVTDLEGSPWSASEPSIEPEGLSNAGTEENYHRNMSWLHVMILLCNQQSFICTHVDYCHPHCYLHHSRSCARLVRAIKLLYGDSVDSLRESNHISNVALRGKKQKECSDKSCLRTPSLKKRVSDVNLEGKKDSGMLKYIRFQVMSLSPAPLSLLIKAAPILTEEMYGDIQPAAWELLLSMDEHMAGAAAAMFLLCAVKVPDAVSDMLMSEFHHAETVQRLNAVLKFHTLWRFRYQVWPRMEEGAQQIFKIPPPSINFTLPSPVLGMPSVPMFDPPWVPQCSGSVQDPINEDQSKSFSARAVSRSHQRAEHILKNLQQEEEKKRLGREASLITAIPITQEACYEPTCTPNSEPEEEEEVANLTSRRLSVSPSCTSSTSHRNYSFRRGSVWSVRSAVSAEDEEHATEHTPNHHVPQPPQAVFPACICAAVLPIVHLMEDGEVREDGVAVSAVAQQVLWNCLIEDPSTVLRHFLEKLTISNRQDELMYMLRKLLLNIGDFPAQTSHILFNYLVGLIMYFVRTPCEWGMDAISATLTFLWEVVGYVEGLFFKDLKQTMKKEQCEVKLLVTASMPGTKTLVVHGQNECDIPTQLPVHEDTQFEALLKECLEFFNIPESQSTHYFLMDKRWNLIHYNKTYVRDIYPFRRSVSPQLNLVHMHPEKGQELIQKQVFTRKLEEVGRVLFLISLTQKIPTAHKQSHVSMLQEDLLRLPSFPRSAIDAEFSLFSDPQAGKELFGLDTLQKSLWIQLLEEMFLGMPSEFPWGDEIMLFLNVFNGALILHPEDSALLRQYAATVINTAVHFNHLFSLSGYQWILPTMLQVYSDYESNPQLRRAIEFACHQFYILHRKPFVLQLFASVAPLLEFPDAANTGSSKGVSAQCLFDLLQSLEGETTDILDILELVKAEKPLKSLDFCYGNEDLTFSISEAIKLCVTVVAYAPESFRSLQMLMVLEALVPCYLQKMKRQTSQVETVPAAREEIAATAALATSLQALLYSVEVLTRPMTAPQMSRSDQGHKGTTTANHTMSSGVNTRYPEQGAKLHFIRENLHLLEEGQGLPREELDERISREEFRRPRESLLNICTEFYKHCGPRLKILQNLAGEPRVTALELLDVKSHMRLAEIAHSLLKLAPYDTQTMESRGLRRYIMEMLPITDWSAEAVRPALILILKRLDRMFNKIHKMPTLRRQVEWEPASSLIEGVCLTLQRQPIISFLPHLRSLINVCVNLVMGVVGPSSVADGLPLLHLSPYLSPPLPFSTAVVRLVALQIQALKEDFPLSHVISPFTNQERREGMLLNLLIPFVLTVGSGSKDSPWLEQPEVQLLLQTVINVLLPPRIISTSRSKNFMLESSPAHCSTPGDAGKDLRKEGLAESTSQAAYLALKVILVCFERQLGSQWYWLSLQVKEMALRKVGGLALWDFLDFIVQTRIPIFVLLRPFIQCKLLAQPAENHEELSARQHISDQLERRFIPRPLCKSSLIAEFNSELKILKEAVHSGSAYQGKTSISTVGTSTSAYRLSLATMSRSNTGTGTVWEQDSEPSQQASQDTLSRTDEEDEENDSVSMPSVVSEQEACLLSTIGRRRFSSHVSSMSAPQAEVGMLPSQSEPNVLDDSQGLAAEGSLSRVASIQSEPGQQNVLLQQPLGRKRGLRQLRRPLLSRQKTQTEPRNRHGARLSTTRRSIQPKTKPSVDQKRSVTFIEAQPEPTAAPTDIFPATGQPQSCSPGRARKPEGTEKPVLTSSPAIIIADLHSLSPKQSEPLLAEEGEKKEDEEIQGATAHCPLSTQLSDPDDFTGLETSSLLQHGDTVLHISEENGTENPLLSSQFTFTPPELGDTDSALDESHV

Consider “UNC79 (mouse), wild type, non-tagged, Q0KK59 1-2596”, for which the reduction of apparent UNC80–UNC79 affinity (co-precipitated UNC79) against WT UNC80 came to 60%.
